Measurements as given in the DeepSol protein solubility set.

Test: soluble on expression in E. coli; label from the status in PepcDB or PDB records

Sequence	soluble on expression in E. coli
MGSDKIHHHHHHMTLLNMSNVQIMDVVQALSLSIERGERVGLIGESGSGKTITAMSILRLIPSSGSIVFDGADIQGLSEKQMCALRGKRISMVFQEPMTALDPLMKVGTQISHAIRIHSSVSRAQARKKADALLHSVELDPELRSRYPHELSGGQRQRILIAMALAHDPDLLICDEPTTALDVTSQKAIVDLILRLVAERGTGLLFITHDLGLVARTCERVLVMREGRIIESGTVEDVLKNPREDYTAMLVQASTLAPAPQVALSDDEVLHIDNVTKKYRGTTAVEDVTLTVHRGERLGIVGGSGSGKTTLLKMISGLSSPTSGHINTEGSMRIVFQDPMQSLDPHMSIADIVSEPLGHRDLKAVERALEEVGLDAGMMNRLPHEFSGGQRQRISIARALVSSPDILLADEPVSALDVSVRAKVLALLDRLVSERHLTMLFVSHDLHVVRSLCTTVAVMREGKIVEYGPTEDVFNNPQHEYTKALIEAIPSL	not soluble
MGSDKIHHHHHHMTLRLHEYVEKESFNHPYTFVAAQTGLDEKTVRDIFNARAEFLGRWHRFETPRILGIDELYLNKRYRCILTNIEERTLLDLLATRRQNVVTNYLMKLKDRQKVEIVSMDMWNPYRAAVKAVPPQARIVVDKFHVVRMANDALERVRKGLRKELKPSQSRTLKGDRKILLKRAHEVSDRERLIMETWTGAFPQLLAAYEHKERFYGIWDATTRLQAEAALDEWIATIPKGQKEVWSDLVRAVGNWREETMTYFETDMPVTNAYTESINRLAKDKNREGRGYSFEVMRARMLYTTKHKKKAPTAKVSPFYKKTIGYGLPDFAEELNYGVDLSTI	not soluble
MGSDKIHHHHHHMTLTSDSWLTLIVSLPSASATARMRIWRAVKALGCAALRDGAYLLPAQAEQAAQLQMLADEALQEGGQAWLLQVQALDLAEQATFQALFDRTADYTPWLEELAQARQTLSALSAAELQRTQRKHARAYEVIRKIDFFPGETSIRADAQWRDFANALESMQSPGEPQPMAGRIARRDRMQYQGRVWATRRHLWVDRVASAWLIQRFIDPHARFLWLNTAADCPSDALGFDFDGATFSHVGERVTFEVLLASFGLEDDRGLSRLGAMVHALDVGGATTPEASGFEAVLAGARKRWPDDDALLVDIGGVLDSLHAHFSSSRKT	not soluble
MGSDKIHHHHHHMTNAFKGIPEELLKPHASPCVSIFMPTSRTFPDNTQDPVRFKNLVSRAEADGIAFSTKREMAPLIERLRLLQDDASFWNHTLDGLAVFISPDYFRIFRLQQSVLEQAHVTDAFYIRPLIRIYQIVERFQVLALTRSEVKLYEGTRDHLDEIELAPEVPKTMTDALGTEITPPHMTIASYGGTGTAMRHGHSSRKDEEALDNERFFRAVDQGINEYHSSSSGLPLVLVALPEHQGLFRSISRNQRLVAEGIEIDPAALGLEAMRQKAWQVMEPYRERKIDQMIARFREAEGGKLGSDNPYAIAIAAVAGNVSHLLLDGQKFWPGQIDPVSGDILLDEASQASGRDVFEELGAAVLARGGEVLVLPSERMPSASGVAAIFRHD	not soluble
MGSDKIHHHHHHMTNFPPLLLAYGLDLEGPIHRGIATYAKAMIRLLHQSGYPLHLLTGAGGLAQGRLASLSLHRHLDQPSNWSRIQLAQSYFAERLGRSRQTPIKVDSNLIIGDRIQYLQQIDQLINHPFFYRKLRLQAKISDRPFFLKTKNYPVVLTSSPLNLRVSSSSRLIQVIHDLIPLNYLRHPDEAVTFLRRLQATADYSDRIICLSETTRQQFLELFPQAESRTLTLYQPVSFSAEALALTDRPDFAAAVLRRYGLERDRYFFFVGAIEPRKNLETLIAAQQVAVLRTQLPLVIGGTADVHTQDYAQQLQQRSRSTDQILWTGYLTEAEKICLLRHCRALTFLSWQEGFGIPMIEAALCGRSSLLANIPVLREVMGAAATYANPQHPLEVADQLIQLGCYPAQLSELRSRATQQIQAFADGQVQQQIQQVLQSLIS	not soluble
MGSDKIHHHHHHMTNVSGYHRPELHITAESGVLFAPAGVLLDDDTWHFFHQYRPSPDHGPRWAHQFAERTPFVWDICDDVLAPEGDETQVRAGSVVSNNGGVDLYFTSVVGPTSTIQLAHINNIRGTTELINEDELGLDPDVSRIGEVVGNTDGYVKFRSPCVIPGWEDQGNRDEGHSGWLMLAVTGPVEAPTVVVLDSPDGREWSITGPLSLNGLSGLESDEVLVAPRMIRLRDEVDHEIYDVLIVTIEQDGIDISGYLVGQLNGSEFDVKTPFTRIDFGHDFSRPRNTNYAETTIGYDFAHIFGLMNGVGRLDSPTEHLSWKEEGWANAISFPRIVTLQDGTVFQTPPEGLLDAIHESEAAAGWTGLCEIPSNSAVEVALKDQEGEIAATITHRHNQLVVDRSMNPNHAGDPHAIAPLTDDETDSLFIVVDGSTVEVFADGGYVSMASRVYFNNGPFSEFEVTTTGDASIIRQESHFPVDFSSVSLDIDDLTALMQFDENEPHEGPVR	not soluble
MGSDKIHHHHHHMTPQPLADNLSPPDPARLAQSIKDWGRELGFQQVGISDVELGEHEAHLQRWLEAGYHGEMDYMAAHGSKRSRPAELVPGTLRVISLRMDYLPGDTRMAQVLATPEKAYVSRYALGRDYHKLIRKRLQQLAERIQAEVGPFGFRAFVDSAPVLEKAIAEQAGLGWIGKNTLVLNRKAGSYFFLGELFVDMPLPVDPAMDSEHCGRCSACLDICPTAAFVGPYRLDARRCISYLTIEYKGAIPLELRPLIGNRVFGCDDCQIVCPWNRFARPTGQGDFQPRHSLDNAELAELFLWSEEEFLGRTEGSPLRRAGYERWLRNLAVGLGNAPSTIPVLEALKARRGFPSELVREHVEWALRRHGET	not soluble
MGSDKIHHHHHHMTPTAFNTGRVQVNKTIAELRSLGKDARERVPFSQLGQYQPLDRDSNQLMDRIRRLLIPELLPERTRRMAASPFAFFRGTAELMEADLRQQPNSTIETFVCGDAHIGNFGFYASPERRLLFDLNDFDEAGINPWEWDLKRLLVSVLLAAQANGIKEKKIKQFLPTVAASYRKSMKQMFTQTTLARFYPLNDVEKLIQASALTDADSQLLMTIINRASKRDSEQVVRKFTTLDSRGNLCFRENAPKTTHVTDDVTTHIATYFAAYRQTVRPDVNLLLSQYHLTDVVRHSVGVGSFGSRCYLVLLTSIDGSHLVLQIKEALPTRQQGSQTLAQLTVAQEQTEGQRIVDCQKILQSASDSFLGYFAGNQHSFYVRQFRDMKESIDLTQLDWGQLQTYANTCAWTLAIAHCQSPTAAMIRGYIGGGKQFDEQLAAFASAYAQQVQTDYESFVAYRLPTKQP	not soluble
MGSDKIHHHHHHMTPTYDTLIIGAGIAGASLGYRLAGQQRVLLVERESQPGYHSTGRSAAMFMEAYGTPQIQALTRASRAFYEAPPQGFCEHPLLEPRGCLYVASLEQRELLEQTFAQNLANGTEVTLLDRDAALALIPSLRGETLAGAVLEPGAMDLDVHALHQGFLRGYRTAGGELRCNAELIQACYLDDVWQVELADGSRLQARCLVNAAGAWADRVAEQCGVARIGLQPCRRSAFTFPGPAEQDFTRWPAVIGVDESFYFKPDAGQLLGSPANADPVEPQDAAPEEFDVALGIYNIEAMTTLAIRRPSHTWAGLRSFVADGDLVIGFDAHAPAFFWLAAQGGYGIQSAAGASRLAADLLLGQPLCASLVSQGVAPERLSPARFQQP	not soluble
MGSDKIHHHHHHMTQLELLLERIIDRVNVNLRHQKFDVGDYVRRQTPHLHYSKFYAFYGLSADDPVHFHFKNSSLAGSYLLGRVNVLHSALYKSDIRGDELKRKGQHFVCDGKMIPLHDDEVITIKDSFLNKTLVHSNSHDPESPEEFTIRNTVAMPYANIHGSLTEGSFIGSFATVDLSTIHNSVVRYFSYVQTGELVGKCVEPGQIWIKSGDELEFHYSFDKAILDKYISQEAGSCPTGVLMEFVEVRQEDFEEVFASGHMASGAGSASGASVSGYAVIKGDTVIGENVLVSQRAYLDNAWMGKGSNAQENCYIINSRLERNCVTAHGGKIINAHLGDMIFTGFNSFLQGSESSPLKIGDGCVVMPHTIIDLEEPLEIPAGHLVWGYIRNKADLAAHSISFEEFAKVDGEVTMGRMTFRGKGGPFLDSFKKRIKRILSENGAFFDGSEGTGHAQKGKNFTFNIIQPYQDGDPRGMYPTILIQPNNGS	not soluble
MGSDKIHHHHHHMTQLPNFSQSLSQLIACPSISSTQPSWDQGNKEVIQLLATWFEQLDFNIEIQAVPNTSNKFNLLAKLGSGEGGLLLAGHSDTVPFDENRWQSNPHTVVNQDDKFFGLGTCDMKGFFAFILQVCKNLRADQLKKPLYILATADEETTMAGARFFAKSQAIKPDVAIIGEPTNLVPVVMHKGHMSHRISVEGKSGHSSKPNLGINAIEIMYKVIGQLIELKEKFQLNYENQAFDVPAPTLNLGAISGGDNANRICGHCHLDIDLRSLPGMSDDELINWLSEALKPLAELYPGRISFEEMHPSSPSFEQKKPSTLIDIAQEISGHSCCAVNYATEAPYIQQLGCQTIVLGPGSIDQAHQPNEFLAHSEIDKTEKLLTKMIQHYCL	not soluble
MGSDKIHHHHHHMTSGLHISTSFDSGAIEVDALDHADDIRLRIRADSHADFRQWFHFRLQGAAGQACRLQFLNAGDCTYPDGWRDYRAVASYDRANWFRVPTRFDGQVLTVEFTPQHDSVWFAYFEPYPEERHLSLLATCQRSPLAKLSHLGSTVDGRDMTRVTVGQPGPGKKTIWMIARQHPGESMAEWFCEGVLQRLTGTGMWAHDPVARKLLESAVFHIVPNMNPDGSARGNLRTNAAGANLNREWMTPSPETSPEVWHVRRAIEATGCDLFFDIHGDEGLPYNFVAGSEMLPSFSEKQREEQTRFIEAFKRVTPDFQDVHGYAASKYNADALKLASKYVGHTFGCLSLTLEMPFKDNADLPDATVGWNGARSALLGTAMLEAILNFLG	not soluble
MGSDKIHHHHHHMTTASTVYHYCGAESFFSIVRNGRLWVSDARKTNDRRELEWFKDLALKHIAKSAATGDKMLSDLHLALKVRFELLEDVSDYYVCCFSEKKDSVPQWVAYADRGTGFAIGFDVNALRKKIGAALLSPSYAPVPFGVGANGWGFGPVAYAEEGVANAQIDDLMSTIVSAPFVGEDVTDSARDHIDRVCAFCKHPDFQTEHEWRIVCNTSFLKKNAGLTGTDMLPDTKWRKGGYGLTPYRETVDVLDCVKEVIVGPGNADRDSIEYVKQFLRFSGVKAEVFLSVSPYR	not soluble
MGSDKIHHHHHHMTTATQSSAPGVNVDQAEVEKFSALAARWWDPESEFKPLHAINPLRLGWIQETAGSLSGKRVLDMGCGGGILSESMAVAGAQVTGIDLAEKSLKIARLHGLESGVKVDYRAVPVEELAAEQPGQYDVVTCMEMLEHVPDPASVVRACAALAKPGGWVFFSTLNRNPKSFLFAIVGAEYVLRLLPRGTHSYDSFIKPSELATSARQAGLEPTGMRGMEYNPITQVYSLSANTSVNYLMSTRK	not soluble
MGSDKIHHHHHHMTTFYSLKVARVEPETRDAVTITFAIPQALQAEYCFRPGQHLTLKARLGGEELRRCYSICRSRTPGEISVAVKAIDGGRFSRYAQQDIQQGMELEVMVPQGHFGYQPQAERQGEYLAIAAGSGITPMMAIISATLATEPQSRFTLIYGNRSSHSMMFRQALADLKDRYPQRLQVIHLFSQESMDSDLLQGRIDGDKLRQLADHLLDFSRFDEAFICGPAAMMDEAEATLRELGVAEKSIHLERFNTPGGNVKRVAGVQAEGRTVTIRQDGRDRLIALSAEDDSILDAALRQGADLPFACKGGVCATCKCKVLRGEVAMAANYSLEADELAAGYVLSCQSLPTSGDVVVDFDARGMA	not soluble
